# In article PMC2847587 (Molecular cell, 2010):
# B1: FANCA (natural protein, human (endogenous in HeLa), UniProt O15360 1-1455, looked up)
# chain: MSDSWVPNSASGQDPGGRRRAWAELLAGRVKREKYNPERAQKLKESAVRLLRSHQDLNALLLEVEGPLCKKLSLSKVIDCDSSEAYANHSSSFIGSALQDQASRLGVPVGILSAGMVASSVGQICTAPAETSHPVLLTVEQRKKLSSLLEFAQYLLAHSMFSRLSFCQELWKIQSSLLLEAVWHLHVQGIVSLQELLESHPDMHAVGSWLFRNLCCLCEQMEASCQHADVARAMLSDFVQMFVLRGFQKNSDLRRTVEPEKMPQVTVDVLQRMLIFALDALAAGVQEESSTHKIVRCWFGVFSGHTLGSVISTDPLKRFFSHTLTQILTHSPVLKASDAVQMQREWSFARTHPLLTSLYRRLFVMLSAEELVGHLQEVLETQEVHWQRVLSFVSALVVCFPEAQQLLEDWVARLMAQAFESCQLDSMVTAFLVVRQAALEGPSAFLSYADWFKASFGSTRGYHGCSKKALVFLFTFLSELVPFESPRYLQVHILHPPLVPGKYRSLLTDYISLAKTRLADLKVSIENMGLYEDLSSAGDITEPHSQALQDVEKAIMVFEHTGNIPVTVMEASIFRRPYYVSHFLPALLTPRVLPKVPDSRVAFIESLKRADKIPPSLYSTYCQACSAAEEKPEDAALGVRAEPNSAEEPLGQLTAALGELRASMTDPSQRDVISAQVAVISERLRAVLGHNEDDSSVEISKIQLSINTPRLEPREHMAVDLLLTSFCQNLMAASSVAPPERQGPWAALFVRTMCGRVLPAVLTRLCQLLRHQGPSLSAPHVLGLAALAVHLGESRSALPEVDVGPPAPGAGLPVPALFDSLLTCRTRDSLFFCLKFCTAAISYSLCKFSSQSRDTLCSCLSPGLIKKFQFLMFRLFSEARQPLSEEDVASLSWRPLHLPSADWQRAALSLWTHRTFREVLKEEDVHLTYQDWLHLELEIQPEADALSDTERQDFHQWAIHEHFLPESSASGGCDGDLQAACTILVNALMDFHQSSRSYDHSENSDLVFGGRTGNEDIISRLQEMVADLELQQDLIVPLGHTPSQEHFLFEIFRRRLQALTSGWSVAASLQRQRELLMYKRILLRLPSSVLCGSSFQAEQPITARCEQFFHLVNSEMRNFCSHGGALTQDITAHFFRGLLNACLRSRDPSLMVDFILAKCQTKCPLILTSALVWWPSLEPVLLCRWRRHCQSPLPRELQKLQEGRQFASDFLSPEAASPAPNPDWLSAAALHFAIQQVREENIRKQLKKLDCEREELLVFLFFFSLMGLLSSHLTSNSTTDLPKAFHVCAAILECLEKRKISWLALFQLTESDLRLGRLLLRVAPDQHTRLLPFAFYSLLSYFHEDAAIREEAFLHVAVDMYLKLVQLFVAGDTSTVSPPAGRSLELKGQGNPVELITKARLFLLQLIPRCPKKSFSHVAELLADRGDCDPEVSAALQSRQQAAPDADLSQEPHLF
# B2: FAAP24 (natural protein, human (endogenous in HeLa), UniProt Q9BTP7 1-215, looked up)
# chain: MEKNPPDDTGPVHVPLGHIVANEKWRGSQLAQEMQGKIKLIFEDGLTPDFYLSNRCCILYVTEADLVAGNGYRKRLVRVRNSNNLKGIVVVEKTRMSEQYFPALQKFTVLDLGMVLLPVASQMEASCLVIQLVQEQTKEPSKNPLLGKKRALLLSEPSLLRTVQQIPGVGKVKAPLLLQKFPSIQQLSNASIGELEQVVGQAVAQQIHAFFTQPR
# Key:
# Assay in all cases: immunodepletion
# FAAP24 = molecular target: B2
# [1] = molecular target: MHF2 (FANCM-associated Histone Fold protein 2) (human (endogenous in HeLa), UniProt A8MT69 1-81)
# MHF2 (FANCM-associated Histone Fold protein 2), sequence (A8MT69 whole entry): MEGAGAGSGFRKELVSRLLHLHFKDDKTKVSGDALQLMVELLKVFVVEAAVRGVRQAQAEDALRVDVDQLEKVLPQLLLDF
# [2] = molecular target: MHF1 (FANCM-associated Histone Fold protein 1) (human (endogenous in HeLa), UniProt Q8N2Z9-1 1-138)
# MHF1 (FANCM-associated Histone Fold protein 1), sequence (Q8N2Z9 whole entry): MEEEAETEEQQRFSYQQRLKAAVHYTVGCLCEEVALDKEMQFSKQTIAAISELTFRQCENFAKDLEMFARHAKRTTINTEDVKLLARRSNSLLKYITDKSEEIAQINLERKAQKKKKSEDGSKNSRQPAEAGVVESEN
# FANCA = molecular target: B1
percent co-depleted (FAAP24),percent co-depleted [1],percent co-depleted [2],percent co-depleted (FANCA),Binder
< 25%,< 25%,< 25%,–,B1
–,–,–,< 30%,B2
